Measurements: patent publication US20250145729A1

Molecular target: cyno CD98hc (cynomolgus monkey)
Test: SPR (Biacore)

Kd: 1500 nM
Substance: LLB2.C.1 (from UniProt P0DOX5 233-449) (Fc fusion)
